This assay deals with human DII4 (delta-like ligand 4) (human, UniProt Q9NR61 27-524, limits assumed). Kind of assay: cell-based or functional assay.

These results are taken from patent US20100330106A1 (Regeneron, published 2010).

human DII4 (delta-like ligand 4), sequence (Q9NR61 27-524 limits assumed, stated change not applied): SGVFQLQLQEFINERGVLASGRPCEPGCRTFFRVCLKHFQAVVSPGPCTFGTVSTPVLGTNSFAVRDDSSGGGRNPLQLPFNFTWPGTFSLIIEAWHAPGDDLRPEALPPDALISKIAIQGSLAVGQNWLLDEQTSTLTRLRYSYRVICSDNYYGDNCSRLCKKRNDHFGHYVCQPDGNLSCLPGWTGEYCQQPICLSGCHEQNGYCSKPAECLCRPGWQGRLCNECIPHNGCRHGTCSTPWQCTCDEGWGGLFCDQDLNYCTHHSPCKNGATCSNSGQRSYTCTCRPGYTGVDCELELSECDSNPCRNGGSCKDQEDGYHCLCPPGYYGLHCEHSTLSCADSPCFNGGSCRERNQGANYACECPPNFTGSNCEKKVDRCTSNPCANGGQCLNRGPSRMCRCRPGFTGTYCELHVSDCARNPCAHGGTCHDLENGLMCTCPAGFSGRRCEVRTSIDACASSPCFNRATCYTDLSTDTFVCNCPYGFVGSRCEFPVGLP

B1: REGN421 (antibody, V domains shown)
VH: QVQLVESGGGVVQPGRSLRLSCAASGFTFSSYGMHWVRQAPGKGLEWVSFLWYDGTNKNYVESVKGRFTISRDNSKNMLYLEMNSLRAEDTAVYYCARDHDFRSGYEGWFDPWGQGTLVTVSS
VL: EIVLTQSPATLSLSPGERATLSCRASQSVSSYLAWYQQKPGQAPRLLIYDASNRATGIPARFSGSGSGTDFTLTISSLEPEDFAVYYCQHRSNWPPTFGGGTKVEIK
With B1, the “Hey-1 transcript, Post-treatment vs. Pre-treatment ratio (microarray, patient 1, dose 0.25 mg/kg, 24 hours after REGN421 administration)” value came to 0.52 ratio; the “Hey-1 transcript, Post-treatment vs. Pre-treatment ratio (microarray, patient 2, dose 0.25 mg/kg, 24 hours after REGN421 administration)” value came out at 0.85 ratio; the “Hey-1 transcript, Post-treatment vs. Pre-treatment ratio (microarray, patient 3, dose 0.25 mg/kg, 24 hours after REGN421 administration)” value turned out to be 0.77 ratio; the “Hey-1 transcript, Post-treatment vs. Pre-treatment ratio (microarray, patient 4, dose 0.25 mg/kg, 24 hours after REGN421 administration)” value was determined as 0.51 ratio. Moreover, the “Hey-1 transcript, Post-treatment vs. Pre-treatment ratio (microarray, patient 5, dose 0.25 mg/kg, 24 hours after REGN421 administration)” value amounted to 0.61 ratio; the “Hey-1 transcript, Post-treatment vs. Pre-treatment ratio (microarray, patient 6, dose 0.25 mg/kg, 24 hours after REGN421 administration)” value came out at 0.55 ratio; the “Hey-1 transcript, Post-treatment vs. Pre-treatment ratio (microarray, patient 7, dose 0.25 mg/kg, 24 hours after REGN421 administration)” value is 0.75 ratio; the “Hey-1 transcript, Post-treatment vs. Pre-treatment ratio (microarray, patient 8, dose 0.5 mg/kg, 24 hours after REGN421 administration)” value worked out at 0.68 ratio. Moreover, the “Hey-1 transcript, Post-treatment vs. Pre-treatment ratio (microarray, patient 9, dose 0.5 mg/kg, 24 hours after REGN421 administration)” value was found to be 0.82 ratio.
